Results from patent US20240043533A1 (NGM BIOPHARMACEUTICALS, published 2024).
Like-named read-outs stand apart in the source and are kept apart here.

T1: extracellular domain of cyno ILT3 (cynoILT3-ECD) (cynomolgus monkey)
T1 chain: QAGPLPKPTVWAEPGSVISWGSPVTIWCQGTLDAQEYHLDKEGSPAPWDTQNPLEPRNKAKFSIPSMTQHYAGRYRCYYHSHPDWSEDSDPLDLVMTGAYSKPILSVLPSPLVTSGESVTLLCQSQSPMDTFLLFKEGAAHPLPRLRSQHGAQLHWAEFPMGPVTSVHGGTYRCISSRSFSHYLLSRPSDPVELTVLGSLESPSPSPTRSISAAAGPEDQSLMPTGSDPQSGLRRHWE


Legend:
[1] = target: ILT3 extracellular domain chimeric receptor on NFAT-GFP reporter cells (human); assay: cell-based or functional assay
[2] = target: T1, extracellular domain of cyno ILT3 …; assay: SPR (Biacore), antibody captured via anti-Fc on CM5 chip, soluble ILT3-ECD injected, 37 C
Procedure: (§1) The binding affinities of anti-ILT3 antibodies to human ILT3 and cyno ILT3 were measured using a Biacore system (GE Healthcare LifeSciences). Briefly, anti-Fc antibody (Sigma-Aldrich) was immobilized on all four flow cells of a CM5 chip using amine coupling reagents (GE Healthcare LifeSciences). Antibodies were captured on flow cells 2, 3, and 4 using flow cell 1 as a reference. Concentrations ranging from 3.3-10 nM of human or cyno ILT3-ECD were injected at a flow rate of 50 μL/min at 37° C. Kinetic data were collected over time and fit using the simultaneous global fit equation to yield affinity constants (KD values) for each antibody.
(§2) The binding affinity of Hz5A7.v5 to human ILT3 and cyno ILT3 was determined using a Biacore system as described herein and compared with the binding affinity of the parental chimeric 5A7 (ch5A7) antibody and humanized 5A7 without any CDR modifications (Hz5A7.v1) (see Table 12).

[3] = target: T2, extracellular domain of human ILT3 (huILT3-ECD) (human, UniProt Q8NHJ6 22-259); assay: as above
T2 construct: also called human ILT3-ECD
Procedure: as §1, §2

[4] = target: T1, extracellular domain of cyno ILT3 …; assay: as above
Procedure: as §1

[5] = target: T2, extracellular domain of human ILT3 …; assay: as above; remark: listed apart in the source
Procedure: as §1

[6] = target: T3, LILRB5 (human, UniProt O75023); assay: FACS on cells expressing human LILRB5, labeled anti-mouse Fc secondary antibody
T3 construct: expressed on the cell surface; also called human LILRB5; CD85C
T3 sequence (O75023 24-590 limits assumed): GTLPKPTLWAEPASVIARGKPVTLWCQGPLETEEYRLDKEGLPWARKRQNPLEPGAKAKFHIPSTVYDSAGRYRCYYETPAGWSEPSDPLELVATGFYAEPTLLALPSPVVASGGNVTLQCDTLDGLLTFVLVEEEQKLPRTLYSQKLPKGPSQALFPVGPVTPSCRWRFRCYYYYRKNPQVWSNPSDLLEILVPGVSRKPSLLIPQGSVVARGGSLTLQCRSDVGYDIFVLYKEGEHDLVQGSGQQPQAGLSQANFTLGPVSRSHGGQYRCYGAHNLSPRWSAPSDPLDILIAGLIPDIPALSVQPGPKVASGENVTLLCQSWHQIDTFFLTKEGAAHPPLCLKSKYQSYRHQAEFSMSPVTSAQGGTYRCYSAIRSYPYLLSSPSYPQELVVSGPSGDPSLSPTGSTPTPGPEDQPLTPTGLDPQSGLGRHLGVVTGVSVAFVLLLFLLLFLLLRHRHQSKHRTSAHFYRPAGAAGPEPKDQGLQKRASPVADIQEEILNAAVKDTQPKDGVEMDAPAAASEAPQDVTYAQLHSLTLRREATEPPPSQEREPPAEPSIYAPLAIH
Procedure: (§3) ELISA assays were used to screen antibodies against human ILT3 and human LILRA1,2,4-6. […] These antibodies were rescreened by FACS for binding to human ILT3 and cyno ILT3 expressed on HEK-293T cells. The antibodies that bound to both human and cyno ILT3 were selected. This subset of antibodies were screened by FACS against human LILRB1-5 (ILT2, ILT4, ILT5, ILT3, and LILRB5, respectively), cyno LILRB5, and human LILRA1,2,4-6. For FACS screening, each antibody was incubated with cells expressing human ILT3, cyno ILT3, one of the LILRA proteins, or one of the LILRB proteins for 30 minutes at 4° C. After washing, the cells were incubated with labeled anti-mouse Fc antibody for 30 minutes at 4° C. After washing, cells were analyzed on a flow cytometer. Antibodies were selected on the criteria of binding to human ILT3, cyno ILT3, no or limited binding to other LILRB proteins, and no or limited binding to LILRA proteins.

[7] = target: T4, human LILRA5 (human, UniProt A6NI73 42-299); assay: FACS on cells expressing human LILRA5, labeled anti-mouse Fc secondary antibody
T4 construct: whole, on cells
T4 sequence (A6NI73 42-299): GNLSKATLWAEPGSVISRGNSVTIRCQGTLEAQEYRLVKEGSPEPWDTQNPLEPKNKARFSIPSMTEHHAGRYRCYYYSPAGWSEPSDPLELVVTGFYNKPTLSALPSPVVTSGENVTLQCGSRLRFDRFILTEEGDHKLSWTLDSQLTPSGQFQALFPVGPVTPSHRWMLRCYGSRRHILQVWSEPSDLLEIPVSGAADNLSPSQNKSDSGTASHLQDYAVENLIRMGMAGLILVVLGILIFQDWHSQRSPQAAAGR
Procedure: as §3

[8] = target: T5, LILRB3 (human, UniProt O75022); assay: FACS on cells expressing human LILRB3, labeled anti-mouse Fc secondary antibody
T5 construct: expressed on the cell surface; also called human LILRB3; ILT5
T5 sequence (O75022 24-631 limits assumed): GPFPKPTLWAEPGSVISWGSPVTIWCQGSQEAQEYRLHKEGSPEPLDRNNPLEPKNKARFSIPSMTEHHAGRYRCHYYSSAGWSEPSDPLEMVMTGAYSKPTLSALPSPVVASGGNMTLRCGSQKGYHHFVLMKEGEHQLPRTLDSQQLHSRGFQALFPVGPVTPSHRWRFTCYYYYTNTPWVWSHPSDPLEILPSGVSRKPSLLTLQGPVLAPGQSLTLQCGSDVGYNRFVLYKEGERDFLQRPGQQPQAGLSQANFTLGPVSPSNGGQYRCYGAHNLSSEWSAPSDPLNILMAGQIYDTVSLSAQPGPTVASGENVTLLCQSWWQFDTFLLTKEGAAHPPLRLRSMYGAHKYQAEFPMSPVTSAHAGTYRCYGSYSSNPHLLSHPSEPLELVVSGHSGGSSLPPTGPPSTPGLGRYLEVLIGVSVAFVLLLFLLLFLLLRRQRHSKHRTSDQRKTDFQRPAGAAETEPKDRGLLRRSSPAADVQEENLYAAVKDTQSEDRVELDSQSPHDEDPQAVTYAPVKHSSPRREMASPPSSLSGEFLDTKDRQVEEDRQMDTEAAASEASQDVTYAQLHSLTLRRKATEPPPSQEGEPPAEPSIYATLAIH
Procedure: as §3

[9] = target: T6, LILRB4; assay: FACS on cells expressing human LILRB4 (ILT3), labeled anti-mouse Fc secondary antibody
T6 construct: the construct expressed on the cells is not described further; also called human ILT3 expressed on cells for the FACS screen; ILT3
T6 sequence (receptor, as listed by the source limits assumed): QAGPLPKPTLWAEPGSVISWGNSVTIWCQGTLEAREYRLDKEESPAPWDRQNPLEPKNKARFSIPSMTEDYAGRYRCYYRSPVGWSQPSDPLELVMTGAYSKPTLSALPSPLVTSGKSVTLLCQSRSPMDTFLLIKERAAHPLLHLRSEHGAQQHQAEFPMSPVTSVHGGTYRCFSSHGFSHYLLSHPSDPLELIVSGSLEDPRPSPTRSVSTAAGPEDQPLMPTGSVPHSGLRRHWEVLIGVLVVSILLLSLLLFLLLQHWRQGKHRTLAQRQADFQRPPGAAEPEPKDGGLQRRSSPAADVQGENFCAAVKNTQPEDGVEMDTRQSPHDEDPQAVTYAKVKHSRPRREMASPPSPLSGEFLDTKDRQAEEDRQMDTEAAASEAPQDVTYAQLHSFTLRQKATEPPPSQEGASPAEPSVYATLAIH
Procedure: as §3

[10] = target: T7, human LILRA1 (human, UniProt O75019 17-489); assay: FACS on cells expressing human LILRA1, labeled anti-mouse Fc secondary antibody
T7 construct: whole, on cells
T7 sequence (O75019 17-489): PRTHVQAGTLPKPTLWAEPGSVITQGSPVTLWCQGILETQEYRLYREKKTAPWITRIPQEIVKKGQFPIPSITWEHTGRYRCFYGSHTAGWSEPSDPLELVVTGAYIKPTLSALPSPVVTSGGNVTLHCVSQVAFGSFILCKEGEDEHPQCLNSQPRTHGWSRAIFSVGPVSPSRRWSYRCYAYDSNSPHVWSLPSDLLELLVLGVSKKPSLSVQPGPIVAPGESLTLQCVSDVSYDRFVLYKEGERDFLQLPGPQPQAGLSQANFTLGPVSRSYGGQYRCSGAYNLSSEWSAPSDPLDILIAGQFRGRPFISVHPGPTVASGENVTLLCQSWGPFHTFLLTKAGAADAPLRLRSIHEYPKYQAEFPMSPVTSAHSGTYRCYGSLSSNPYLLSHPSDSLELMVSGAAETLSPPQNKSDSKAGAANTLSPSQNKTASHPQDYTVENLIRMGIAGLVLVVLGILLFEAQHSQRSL
Procedure: as §3

[11] = target: T8, human LILRA6 (human, UniProt Q6PI73 24-447, limits assumed); assay: FACS on cells expressing human LILRA6, labeled anti-mouse Fc secondary antibody
T8 construct: Read out of the printed 'LILRA1,2,4-6'
T8 sequence (Q6PI73 24-447 limits assumed): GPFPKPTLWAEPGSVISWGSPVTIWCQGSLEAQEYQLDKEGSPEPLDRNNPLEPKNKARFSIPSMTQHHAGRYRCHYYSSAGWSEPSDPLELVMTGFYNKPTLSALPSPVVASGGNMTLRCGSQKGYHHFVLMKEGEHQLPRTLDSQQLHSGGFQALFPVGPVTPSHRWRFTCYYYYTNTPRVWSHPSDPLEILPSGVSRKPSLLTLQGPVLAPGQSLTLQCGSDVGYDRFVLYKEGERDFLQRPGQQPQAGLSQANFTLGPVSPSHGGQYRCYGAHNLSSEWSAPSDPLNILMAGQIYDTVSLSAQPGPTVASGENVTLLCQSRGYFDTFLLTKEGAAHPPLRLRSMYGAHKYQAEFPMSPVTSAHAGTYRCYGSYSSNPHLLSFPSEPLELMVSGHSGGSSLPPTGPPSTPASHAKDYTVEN
Procedure: as §3

[12] = target: T9, human LILRA2 (human, UniProt Q8N149 24-483); assay: FACS on cells expressing human LILRA2, labeled anti-mouse Fc secondary antibody
T9 construct: whole, on cells
T9 sequence (Q8N149 24-483): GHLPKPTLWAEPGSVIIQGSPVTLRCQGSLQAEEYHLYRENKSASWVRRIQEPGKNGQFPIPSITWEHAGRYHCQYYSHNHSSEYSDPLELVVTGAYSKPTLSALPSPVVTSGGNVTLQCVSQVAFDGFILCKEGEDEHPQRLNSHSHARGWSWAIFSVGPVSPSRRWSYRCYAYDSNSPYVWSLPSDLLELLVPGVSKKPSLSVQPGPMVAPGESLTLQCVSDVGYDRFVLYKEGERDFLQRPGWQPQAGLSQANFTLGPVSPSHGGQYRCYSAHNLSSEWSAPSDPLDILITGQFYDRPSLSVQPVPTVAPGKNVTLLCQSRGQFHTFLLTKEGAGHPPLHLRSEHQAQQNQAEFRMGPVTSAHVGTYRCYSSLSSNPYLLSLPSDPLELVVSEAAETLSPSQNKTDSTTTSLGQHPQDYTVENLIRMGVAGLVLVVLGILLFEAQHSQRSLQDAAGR
Procedure: as §3

[13] = target: T10, Cyno LILRB5 (Macaca fascicularis, UniProt A0A2K5VIP6); assay: FACS on cells expressing cyno LILRB5, labeled anti-mouse Fc secondary antibody
T10 construct: expressed on the cell surface; also called cynomolgus LILRB5
T10 sequence (A0A2K5VIP6 entry or part of it): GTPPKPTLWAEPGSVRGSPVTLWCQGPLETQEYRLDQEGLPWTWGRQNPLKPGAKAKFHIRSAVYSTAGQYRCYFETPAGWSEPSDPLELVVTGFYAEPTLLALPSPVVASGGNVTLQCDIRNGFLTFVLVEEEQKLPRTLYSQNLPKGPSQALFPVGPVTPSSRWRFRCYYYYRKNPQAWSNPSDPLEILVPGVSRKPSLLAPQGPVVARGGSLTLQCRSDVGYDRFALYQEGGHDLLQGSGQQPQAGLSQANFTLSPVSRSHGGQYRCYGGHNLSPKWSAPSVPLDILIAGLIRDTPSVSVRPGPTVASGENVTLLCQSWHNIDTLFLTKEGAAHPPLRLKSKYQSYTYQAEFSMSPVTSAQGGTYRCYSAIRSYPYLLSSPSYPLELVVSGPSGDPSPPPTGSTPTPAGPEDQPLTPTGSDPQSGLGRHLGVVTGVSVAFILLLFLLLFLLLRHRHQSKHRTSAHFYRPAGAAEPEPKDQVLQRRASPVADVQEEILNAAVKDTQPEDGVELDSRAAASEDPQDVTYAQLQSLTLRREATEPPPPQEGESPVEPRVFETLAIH
Procedure: as §3

[14] = target: T11, human LILRA4 (human, UniProt P59901 24-499); assay: FACS on cells expressing human LILRA4, labeled anti-mouse Fc secondary antibody
T11 construct: whole, on cells
T11 sequence (P59901 24-499): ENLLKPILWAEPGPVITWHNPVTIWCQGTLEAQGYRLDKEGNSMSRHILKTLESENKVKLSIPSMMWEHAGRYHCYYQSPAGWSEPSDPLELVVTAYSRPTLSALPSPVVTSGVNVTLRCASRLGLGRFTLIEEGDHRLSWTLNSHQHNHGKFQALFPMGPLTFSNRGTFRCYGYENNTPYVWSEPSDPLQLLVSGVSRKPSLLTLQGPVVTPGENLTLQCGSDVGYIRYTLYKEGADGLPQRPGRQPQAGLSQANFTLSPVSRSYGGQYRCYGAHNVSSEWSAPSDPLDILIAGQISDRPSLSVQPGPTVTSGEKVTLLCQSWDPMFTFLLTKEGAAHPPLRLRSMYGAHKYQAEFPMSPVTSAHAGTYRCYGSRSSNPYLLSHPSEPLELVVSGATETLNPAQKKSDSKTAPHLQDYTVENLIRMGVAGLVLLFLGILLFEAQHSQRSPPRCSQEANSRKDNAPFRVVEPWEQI
Procedure: as §3

[15] = target: T12, human LILRB2 (human, UniProt Q8N423 22-597); assay: FACS on cells expressing human LILRB2, labeled anti-mouse Fc secondary antibody
T12 construct: whole, on cells; also called ILT4
T12 sequence (Q8N423 22-597): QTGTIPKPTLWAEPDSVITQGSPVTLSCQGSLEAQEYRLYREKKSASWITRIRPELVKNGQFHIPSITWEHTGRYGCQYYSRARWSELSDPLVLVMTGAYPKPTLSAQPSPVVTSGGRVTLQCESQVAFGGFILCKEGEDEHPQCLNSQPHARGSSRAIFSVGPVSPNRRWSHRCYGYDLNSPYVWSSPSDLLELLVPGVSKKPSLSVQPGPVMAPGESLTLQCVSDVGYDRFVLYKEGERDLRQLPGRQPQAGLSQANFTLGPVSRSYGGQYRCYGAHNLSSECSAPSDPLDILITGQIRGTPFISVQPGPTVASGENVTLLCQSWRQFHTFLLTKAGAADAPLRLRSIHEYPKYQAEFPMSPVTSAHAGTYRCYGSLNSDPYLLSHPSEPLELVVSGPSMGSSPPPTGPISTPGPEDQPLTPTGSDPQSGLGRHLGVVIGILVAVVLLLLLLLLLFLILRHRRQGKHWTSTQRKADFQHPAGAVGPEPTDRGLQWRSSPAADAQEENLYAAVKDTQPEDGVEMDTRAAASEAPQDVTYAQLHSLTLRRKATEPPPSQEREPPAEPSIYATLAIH
Procedure: as §3

Kd [4] [pM]	koff [4] [s⁻¹]	kon [4] [M⁻¹ s⁻¹]	Kd [5] [pM]	koff [5] [s⁻¹]	kon [5] [M⁻¹ s⁻¹]	EC50 (read off the curve) [9] [pM]	Binder	binding result [6]	binding result [7]	binding result [8]	binding result [10]	binding result [11]	binding result [12]	binding result [13]	binding result [14]	binding result [15]	also measured
							anti-ILT3 antibody ch5A7 (parental chimeric 5A7) (antibody, V domains shown) VH: EVKLVESGGGLVKPGGSLKLSCAASGFTFSSYGMSWVRQTPEKRLEWVATISGGGSYTNYPDSVKGRLTISRDNAKKNLYLEMSSLRSEDTALYYCARREWRMTLYAMDYWGQGTSVTVSS VL: NIVLTQSPASLAVSLGQRATISCRASESVDSYGNSFMHWYQQKPGQAPKLLIYLTSNLESGVPARFSGSGSRTDFTLTIDPVEADDAATYYCQQNNEDPFTFGSGTKLEIK										IC50 (read off the curve) [1]: ~10 pM; Kd [2]: 2400 pM; koff [2]: 0.018 s⁻¹; kon [2]: 7.5e+06 M⁻¹ s⁻¹; Kd [3]: 570 pM; koff [3]: 0.0017 s⁻¹; kon [3]: 2.9e+06 M⁻¹ s⁻¹
1700	0.024	1.4e+07	< 100	1.8e-07	7e+06	~200	anti-ILT3 antibody 48A6 (antibody, V domains shown, Mouse monoclonal antibody from hybridoma) VH: EVQLVESGGDLMKPGGSLKLSCAASGFTFSSYGMSWVRQTPDKRLEWVATISSGGTYTFYPDSVKGRFTISRDNAKNTLYLQMSSLKSEDTAMYYCARRGWLLHYYAMDYWGQGTSVTVSS VL: NIVLTQSPASLAVSLGQRATISCRPSESVDSFGNSFMHWFQQKPGQPPKLLIYLSSKLESGVPARFSGSGSRTDFTLTIDPVEADDAATYYCQQHNEDPFTFGSGTKLEIK	no binding (tested: log [Ab] about -7.2 M (about 6e-8 M))	no binding (tested: log [Ab] about -7.2 M (about 6e-8 M))	binds	no binding (tested: log [Ab] about -7.2 M (about 6e-8 M))	no binding (tested: log [Ab] about -7.2 M (about 6e-8 M))	no binding (tested: log [Ab] about -7.2 M (about 6e-8 M))	no binding (tested: log [Ab] about -7.2 M (about 6e-8 M))	no binding (tested: log [Ab] about -7.2 M (about 6e-8 M))	no binding (tested: log [Ab] about -7.2 M (about 6e-8 M))	
660	0.0022	3.3e+06	28	0.00011	3.8e+06	~300	anti-ILT3 antibody 5A7 (antibody, V domains shown, Mouse monoclonal antibody from hybridoma) VH: EVKLVESGGGLVKPGGSLKLSCAASGFTFSSYGMSWVRQTPEKRLEWVATISGGGSYTNYPDSVKGRLTISRDNAKKNLYLEMSSLRSEDTALYYCARREWRMTLYAMDYWGQGTSVTVSS VL: NIVLTQSPASLAVSLGQRATISCRASESVDSYGNSFMHWYQQKPGQAPKLLIYLTSNLESGVPARFSGSGSRTDFTLTIDPVEADDAATYYCQQNNEDPFTFGSGTKLEIK	no binding (tested: log [Ab] about -7.2 M (about 6e-8 M))	no binding (tested: log [Ab] about -7.2 M (about 6e-8 M))	no binding (tested: log [Ab] about -7.2 M (about 6e-8 M))	no binding (tested: log [Ab] about -7.2 M (about 6e-8 M))	no binding (tested: log [Ab] about -7.2 M (about 6e-8 M))	no binding (tested: log [Ab] about -7.2 M (about 6e-8 M))	no binding (tested: log [Ab] about -7.2 M (about 6e-8 M))	no binding (tested: log [Ab] about -7.2 M (about 6e-8 M))	no binding (tested: log [Ab] about -7.2 M (about 6e-8 M))	
